Results published in paper PMC10778704, “Comparative Analysis of Cyclization Techniques in Stapled Peptides: Structural Insights into Protein–Protein Interactions in a SARS-CoV-2 Spike RBD/hACE2 Model System” (International Journal of Molecular Sciences, 2023).
Bridge positions count the residues as written; N and C are the ends. Square brackets hold non-standard residues; d marks the D form. Peptide text beside a SMILES is read from it. S5 = C=CCCC[C@](C)(N)C(=O)O

Key:
[1] = 37 °C, comparison in words
circular dichroism = conditions: 10 mM Na phosphate; pH 7.4; 25 °C; 100 uM
in vitro = conditions: rat, plasma

Ac-HEAEDLFYQ-NH2 [peptide 2]
Degradation / stability in rat plasma over 24 h [1]: levels of degradation similar to those of 8-amino acid-long AngII

C=CCCC[C@](C)(NC(=O)[C@H](CC(C)C)NC(=O)[C@H](CC(=O)O)NC(=O)[C@H](CCC(=O)O)NC(=O)[C@](C)(CCCC=C)NC(=O)[C@H](CCC(=O)O)NC(=O)[C@H](Cc1c[nH]cn1)NC(C)=O)C(=O)N[C@@H](Cc1ccc(O)cc1)C(=O)N[C@@H](CCC(N)=O)C(N)=O (Ac-HE[S5]EDL[S5]YQ-NH2)
helicity (circular dichroism): 11%

CC(=O)N[C@@H](Cc1c[nH]cn1)C(=O)N[C@@H](CCC(=O)O)C(=O)N[C@H]1CCCCn2cc(nn2)C[C@H](C(=O)N[C@@H](Cc2ccc(O)cc2)C(=O)N[C@@H](CCC(N)=O)C(N)=O)NC(=O)[C@H](CC(C)C)NC(=O)[C@H](CC(=O)O)NC(=O)[C@H](CCC(=O)O)NC1=O
helicity (circular dichroism): 18.1%

CC(=O)N[C@@H](CC(=O)O)C(=O)N[C@@H](CCCCN)C(=O)N[C@H]1CC(=O)NCCCC[C@@H](C(=O)N[C@@H](CCC(=O)O)C(=O)N[C@@H](CC(=O)O)C(N)=O)NC(=O)[C@H](CCC(=O)O)NC(=O)[C@H](Cc2c[nH]cn2)NC(=O)[C@H](CC(N)=O)NC1=O (Ac-DKDNHEKED-NH2; lactam 3-7)
helicity (circular dichroism): 37.2%

CC(=O)N[C@@H](Cc1c[nH]cn1)C(=O)N[C@@H](CCC(=O)O)C(=O)N[C@@H]1Cc2cn(nn2)CCCC[C@@H](C(=O)N[C@@H](Cc2ccc(O)cc2)C(=O)N[C@@H](CCC(N)=O)C(N)=O)NC(=O)[C@H](CC(C)C)NC(=O)[C@H](CC(=O)O)NC(=O)[C@H](CCC(=O)O)NC1=O
helicity (circular dichroism): 25.7%

CC(=O)N1CCC[C@H]1C(=O)N[C@@H](CC(=O)O)C(=O)N[C@@H](CCCCN)C(=O)N[C@H]1CCCCNC(=O)C[C@@H](C(=O)N[C@@H](CCC(=O)O)C(=O)N[C@@H](CC(=O)O)C(N)=O)NC(=O)[C@H](CCC(=O)O)NC(=O)[C@H](Cc2c[nH]cn2)NC(=O)[C@H](CC(N)=O)NC1=O (Ac-PDKKNHEDED-NH2; lactam 4-8)
helicity (circular dichroism): 89.7%

CC(=O)N[C@@H](CC(=O)O)C(=O)N[C@@H](CCCCN)C(=O)N[C@@]1(C)CCC/C=C/CCC[C@@](C)(C(=O)N[C@@H](CCC(=O)O)C(=O)N[C@@H](CC(=O)O)C(N)=O)NC(=O)[C@H](CCC(=O)O)NC(=O)[C@H](Cc2c[nH]cn2)NC(=O)[C@H](CC(N)=O)NC1=O (Ac-DK[S5]NHE[S5]ED-NH2; staple (E) 3-7)
helicity (circular dichroism): 4.7%

CC(=O)N[C@@H](Cc1c[nH]cn1)C(=O)N[C@@H](CCC(=O)O)C(=O)N[C@@]1(C)CCC/C=C/CCC[C@@](C)(C(=O)N[C@@H](Cc2ccc(O)cc2)C(=O)N[C@@H](CCC(N)=O)C(N)=O)NC(=O)[C@H](CC(C)C)NC(=O)[C@H](CC(=O)O)NC(=O)[C@H](CCC(=O)O)NC1=O [peptide 11, Ac-NH-His-Glu-[S5-Glu-Asp-Leu-S5]-Tyr-Gln-CO-NH2] (Ac-HE[S5]EDL[S5]YQ-NH2; staple (E) 3-7)
helicity (circular dichroism): 53.5% | Degradation / stability in rat plasma over 24 h [1]: significantly more stable | half-life (in vitro): 408 min

CC(=O)N[C@@H](Cc1c[nH]cn1)C(=O)N[C@@H](CCC(=O)O)C(=O)N[C@H]1CCCCNC(=O)CC[C@@H](C(=O)N[C@@H](Cc2ccc(O)cc2)C(=O)N[C@@H](CCC(N)=O)C(N)=O)NC(=O)[C@H](CC(C)C)NC(=O)[C@H](CC(=O)O)NC(=O)[C@H](CCC(=O)O)NC1=O (Ac-HEKEDLEYQ-NH2; lactam 3-7)
helicity (circular dichroism): 4.6%

CC(=O)N1CCC[C@H]1C(=O)N[C@@H](Cc1c[nH]cn1)C(=O)N[C@@H](CCC(=O)O)C(=O)N[C@H]1CCCCNC(=O)C[C@@H](C(=O)N[C@@H](Cc2ccc(O)cc2)C(=O)N[C@@H](CCC(N)=O)C(N)=O)NC(=O)[C@H](CC(C)C)NC(=O)[C@H](CC(=O)O)NC(=O)[C@H](CCC(=O)O)NC1=O (Ac-PHEKEDLDYQ-NH2; lactam 4-8)
helicity (circular dichroism): 56.7%

CC(=O)N[C@@H](CC(=O)O)C(=O)N[C@@H](CCCCN)C(=O)N[C@H]1CCCCNC(=O)C[C@@H](C(=O)N[C@@H](CCC(=O)O)C(=O)N[C@@H](CC(=O)O)C(=O)N[C@H]2CCCCNC(=O)C[C@@H](C(N)=O)NC(=O)[C@H](CCC(N)=O)NC(=O)[C@H](Cc3ccc(O)cc3)NC(=O)[C@H](Cc3ccccc3)NC2=O)NC(=O)[C@H](CCC(=O)O)NC(=O)[C@H](Cc2c[nH]cn2)NC(=O)[C@H](CC(N)=O)NC1=O (Ac-DKKNHEDEDKFYQD-NH2; lactam 3-7, 10-14)
helicity (circular dichroism): 25.2%

CC(=O)N[C@@H](CC(=O)O)C(=O)N[C@@H](CCCCN)C(=O)N[C@@H]1Cc2cn(nn2)CCCC[C@@H](C(=O)N[C@@H](CCC(=O)O)C(=O)N[C@@H](CC(=O)O)C(N)=O)NC(=O)[C@H](CCC(=O)O)NC(=O)[C@H](Cc2c[nH]cn2)NC(=O)[C@H](CC(N)=O)NC1=O
helicity (circular dichroism): 5.2%

CC(=O)N[C@@H](Cc1c[nH]cn1)C(=O)N[C@@H](CCC(=O)O)C(=O)N[C@H]1Cn2cc(nn2)CCc2cn(nn2)C[C@@H](C(=O)N[C@@H](Cc2ccc(O)cc2)C(=O)N[C@@H](CCC(N)=O)C(N)=O)NC(=O)[C@H](CC(C)C)NC(=O)[C@H](CC(=O)O)NC(=O)[C@H](CCC(=O)O)NC1=O
helicity (circular dichroism): 50.7%

CC(=O)N[C@@H](CC(=O)O)C(=O)N[C@@H](CCCCN)C(=O)N[C@H]1CCCCNC(=O)C[C@@H](C(=O)N[C@@H](CCC(=O)O)C(=O)N[C@@H](CC(=O)O)C(N)=O)NC(=O)[C@H](CCC(=O)O)NC(=O)[C@H](Cc2c[nH]cn2)NC(=O)[C@H](CC(N)=O)NC1=O [compound 3] (Ac-DKKNHEDED-NH2; lactam 3-7)
helicity (circular dichroism): 49.9% | half-life (in vitro): 174 min

CC(=O)N[C@@H](Cc1c[nH]cn1)C(=O)N[C@@H](CCC(=O)O)C(=O)N[C@H]1CC(=O)NCCCC[C@@H](C(=O)N[C@@H](Cc2ccc(O)cc2)C(=O)N[C@@H](CCC(N)=O)C(N)=O)NC(=O)[C@H](CC(C)C)NC(=O)[C@H](CC(=O)O)NC(=O)[C@H](CCC(=O)O)NC1=O (Ac-HEDEDLKYQ-NH2; lactam 3-7)
helicity (circular dichroism): 35.1%

Ac-DKFNHEAED-NH2 [peptide 1]
Degradation / stability in rat plasma over 24 h [1]: levels of degradation similar to those of 8-amino acid-long AngII

CC(=O)N[C@@H](CC(=O)O)C(=O)N[C@@H](CCCCN)C(=O)N[C@@]1(C)CCC/C=C\CCC[C@@](C)(C(=O)N[C@@H](CCC(=O)O)C(=O)N[C@@H](CC(=O)O)C(N)=O)NC(=O)[C@H](CCC(=O)O)NC(=O)[C@H](Cc2c[nH]cn2)NC(=O)[C@H](CC(N)=O)NC1=O [peptide 10] (Ac-DK[S5]NHE[S5]ED-NH2; staple (Z) 3-7)
helicity (circular dichroism): 68.9% | half-life (in vitro): 240 min

CC(=O)N[C@@H](CC(=O)O)C(=O)N[C@@H](CCCCN)C(=O)N[C@H]1Cn2cc(nn2)CCc2cn(nn2)C[C@@H](C(=O)N[C@@H](CCC(=O)O)C(=O)N[C@@H](CC(=O)O)C(N)=O)NC(=O)[C@H](CCC(=O)O)NC(=O)[C@H](Cc2c[nH]cn2)NC(=O)[C@H](CC(N)=O)NC1=O
helicity (circular dichroism): 8.2%

CC(=O)N[C@@H](CC(=O)O)C(=O)N[C@@H](CCCCN)C(=O)N[C@H]1CSCc2ccc(cc2)CSC[C@@H](C(=O)N[C@@H](CCC(=O)O)C(=O)N[C@@H](CC(=O)O)C(N)=O)NC(=O)[C@H](CCC(=O)O)NC(=O)[C@H](Cc2c[nH]cn2)NC(=O)[C@H](CC(N)=O)NC1=O
helicity (circular dichroism): 5%
